Experimental data as given in patent US20250066490A1 (PROFOUNDBIO US, published 2025).

How the values were obtained:
[1] = target: T1, human CD70 expressed on the cell surface of tumor cell lines (human, UniProt P32970 1-193); test: flow cytometry on Caki-1 cells
T1 construct: whole, on cells
T1 sequence (looked up): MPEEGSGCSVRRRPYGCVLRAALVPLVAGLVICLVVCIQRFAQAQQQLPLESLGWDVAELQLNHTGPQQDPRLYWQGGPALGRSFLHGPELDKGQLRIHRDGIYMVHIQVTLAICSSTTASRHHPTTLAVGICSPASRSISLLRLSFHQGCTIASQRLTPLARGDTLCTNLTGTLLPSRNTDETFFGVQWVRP
Description: (§1) The lead antibodies were tested for binding to renal carcinoma cells and glioblastoma cells expressing CD70 on the cell surface by flow cytometry. […] U251 cells were cultured with MEM medium containing of 10% FBS and 1% NEAA+1 mM sodium pyruvate. DBTRG-05MG cells were cultured with DMEM medium (Gibco, Cat #C11995500BT) containing of 10% FBS. Each of the lead antibodies and the controls were incubated for 30 mins with the different cell lines (3×10⁵ cells per well) in 0.2 ml FACS buffer (1×PBS with 0.1% BSA) at 4° C. Then, the cells were pelleted, washed, and incubated at 4° C. for 30 mins with 100 μl of 1:200 diluted PE-conjugated anti human Fc (Abcam, Ab98596) in FACS buffer. The cells were pelleted again, washed with PBS, resuspended in FACS buffer and analyzed by flow cytometer (Beckman, CytoFLEX).
(§2) Antibodies 2H8 and 2D2 had slightly higher binding ability to the cell lines than that of antibody 69A7.

[2] = target: T2, human CD70 recombinant protein (human, UniProt P32970 39-193, limits assumed); test: ELISA, IgG titrated on coated human CD70 recombinant protein (2 µg/ml), anti-human Fc-HRP, OD450
T2 construct: May be the same reagent as ACRO CDL-H5246; also called CD70 protein
T2 sequence (looked up): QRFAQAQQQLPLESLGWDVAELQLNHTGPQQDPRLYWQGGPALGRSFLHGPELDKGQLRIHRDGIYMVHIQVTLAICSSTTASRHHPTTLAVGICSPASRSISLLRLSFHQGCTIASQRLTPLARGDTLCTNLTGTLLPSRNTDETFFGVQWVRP
Description: (§3) The binding specificity of the CD70 antibodies was tested by ELISA according to a standard protocol. Briefly, 96-well micro-plates were coated with 2 μg/ml of human or cynomolgus CD70 recombinant protein in PBS at 100 μl per well and incubated overnight at 4° C. The plates were washed twice with TBS+0.5% Tween20. 200 μL of blocking buffer (2% BSA in PBS) was added to each well, and the plates were incubated at 37° C. for 2 hours. The plates were washed using the wash buffer mentioned above. Serially diluted antibodies were added to the ELISA plates using 100 μl per well, and the plates were incubated for 1 hour at room temperature. Then plates were washed 3 times. HRP conjugated anti-human Fc antibody solution (Sigma, I18885-2ML, diluted with blocking buffer) was added to the plates using 100 μl per well. The plates were incubated at room temperature for 1 hour and then washed 3 times. Then the TMB solution was added to plates using 100 μl per well and the plates were placed at RT for 5-15 mins. Then the stop solution (2M H2SO4) was added using 50 μl per well. The absorbance was measured at A450 and A630.

[3] = target: T1, human CD70 expressed on the cell …; test: flow cytometry on DBTRG-05MG cells
Description: as §1, §2

[4] = target: T3, human CD70 extra-cellular domain (ECD) linked to His tag (human, UniProt P32970 39-193); test: BLI (Octet RED), antibody on anti-human Fc tips, CD70 ECD-His at 100 nM
T3 construct: extracellular domain; also called Hu CD70; HU CD70; not shown: His tag
T3 sequence (looked up): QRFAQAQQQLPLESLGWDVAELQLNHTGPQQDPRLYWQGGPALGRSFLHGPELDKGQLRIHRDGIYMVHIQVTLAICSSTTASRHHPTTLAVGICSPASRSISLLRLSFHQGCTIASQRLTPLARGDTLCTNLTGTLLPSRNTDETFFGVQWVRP
Description: Recombinant proteins consisting of human, rat, or mouse CD70 extra-cellular domain (ECD) linked to His tag was purchased (from ACRO systems). 69A7 and 2E7 (20 nM) were immobilized on anti-human IgG Fc biosensor tips (ForteBio). Binding assays using one concentration (100 nM) of recombinant protein in solution were performed using Octet RED (ForteBio). Association time was set at 180s and dissociation time was set at 300s. Binding affinity was calculated using ForteBio Data Acquisition 6.3 software. Affinity was derived by fitting the kinetic data to a 1:1 Langmuir binding model utilizing global fitting algorithms. […] 2E7 had no cross-reactivity to rat or mouse CD70 (Table 10).

[5] = target: T1, human CD70 expressed on the cell …; test: flow cytometry on 786-O cells
Description: as §1, §2

[6] = target: T1, human CD70 expressed on the cell …; test: flow cytometry on Caki-1 cells, PE anti-human Fc, MFI; same fit as Table 6, which prints it in nM
Description: as §1, §2

[7] = target: T4, cynomolgus CD70 recombinant protein (cynomolgus, UniProt A0A2K5WTU9 39-190); test: ELISA, IgG titrated on coated cynomolgus CD70 recombinant protein (2 µg/ml), anti-human Fc-HRP, OD450
T4 construct: also called cyno-antigen; cynomolgus CD70 protein
T4 sequence: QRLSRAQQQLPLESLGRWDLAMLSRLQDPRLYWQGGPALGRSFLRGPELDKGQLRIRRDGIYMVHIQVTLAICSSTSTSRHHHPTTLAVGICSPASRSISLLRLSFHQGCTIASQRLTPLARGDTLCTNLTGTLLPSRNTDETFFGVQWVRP
Description: as §3

[8] = target: T1, human CD70 expressed on the cell …; test: flow cytometry on 786-O cells, PE anti-human Fc, MFI; same fit as Table 6, which prints it in nM
Description: as §1, §2

[9] = target: T5, CD70 ECD (antigen immobilized on the CM5 chip) (UniProt P32970 39-193); test: SPR (Biacore T200), CD70 ECD on CM5 chip, IgG as analyte
T5 construct: extracellular domain; also called CD70 antigen
T5 sequence (looked up): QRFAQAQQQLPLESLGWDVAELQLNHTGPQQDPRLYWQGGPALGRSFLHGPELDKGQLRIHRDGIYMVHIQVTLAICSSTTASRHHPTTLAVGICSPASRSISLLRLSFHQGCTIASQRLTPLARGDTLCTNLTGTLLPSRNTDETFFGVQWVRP
Description: (§4) The immobilization of antigen CD70 ECD was performed at 25° C. with HBS-EP as the running buffer. Sensor chip surface of flow cells 1, 4 were activated by freshly mixed 50 mmol/L N-Hydroxy succinimide (NHS) and 200 mmol/L 1-ethyl-3-(3-dimethylaminopropyl) carbodiimide hydrochloride (EDC) for 420s (10 μL/min). Afterwards, CD70 antigen diluted in 10 mmol/L NaAC (pH 4.5) was injected into flow cell 4 to achieve conjugation of the appropriate Response Unit, while flow cell 1 was set as a blank. After the amine coupling reaction, the remaining active coupling sites on chip surface were blocked by 420s injection of 1 mol/L ethanolamine hydrochloride.
(§5) The assay was performed at 25° C. and the running buffer was HBS-EP. Diluted antibodies were injected over the surface of flow cells 1 and 4 during the association phase, followed by injecting running buffer as the dissociation phase. All the data were processed using Biacore T200 Evaluation software version 3.1. Flow cell 1 and a blank injection of buffer in each cycle were used as a double reference for Response Units subtraction. Kinetic data of the interaction between the antibodies and CD70 antigen were obtained through affinity measurement.

[10] = target: T1, human CD70 expressed on the cell …; test: flow cytometry on U251 cells
Description: as §1, §2

[11] = target: T1, human CD70 expressed on the cell …; test: flow cytometry on U251 cells, PE anti-human Fc, MFI; same fit as Table 6, which prints it in nM
Description: as §1, §2

[12] = target: T1, human CD70 expressed on the cell …; test: flow cytometry on DBTRG-05MG cells, PE anti-human Fc, MFI; same fit as Table 6, which prints it in nM
Description: as §1, §2

[13] = target: T1, human CD70 expressed on the cell …; test: cell-based or functional assay
[14] = target: T5, CD70 ECD (antigen immobilized on the …); test: SPR (Biacore T200), CD70 ECD on CM5 chip; lower end tied to 2D2 by the KD values of Table 8
Description: as §4, §5

B1: 69A7 (parent antibody), full IgG (antibody, V domains shown)
VH: QVQLQESGPGLVKPSETLSLTCTVSGGSVSSDYYYWSWIRQPPGKGLEWLGYIYYSGSTNYNPSLKSRVTISVDTSKNQFSLKLRSVTTADTAVYYCARGDGDYGGNCFDYWGQGTLVTVSS
VL: EIVLTQSPATLSLSPGERATLSCRASQSVSSYLAWYQQKPGQAPRLLIFDASNRATGIPARFSGSGSGTDFTLTISSLEPEDFAVYYCQQRSNWPLTFGGGTKVEIK
notes: also called parent antibody 69A7
Q: How did the EC50 [1] turn out when B1 was run?
A: 9.89 nM

Q: What about the EC50 [2] of the same binder?
A: 0.278 µg/mL

Q: And the EC50 [3]?
A: 11.3 nM

Q: What about the Kd [4] of the same binder?
A: 2.89 nM

Q: What about the koff [4] of the same binder?
A: 0.000978 s⁻¹

Q: What about the kon [4] of the same binder?
A: 339000 M⁻¹ s⁻¹

Q: And the EC50 [5]?
A: 6.49 nM

Q: What about the EC50 [6] of the same binder?
A: 1.48 µg/mL

Q: And the EC50 [7]?
A: 10.4 ng/mL

Q: And the EC50 [8]?
A: 0.973 µg/mL

Q: And the Kd [9]?
A: 313 nM

Q: What about the koff [9] of the same binder?
A: 0.00198 s⁻¹

Q: And the kon [9]?
A: 6330 M⁻¹ s⁻¹

Q: What about the EC50 [10] of the same binder?
A: 8.11 nM

Q: What about the EC50 [11] of the same binder?
A: 1.22 µg/mL

Q: What about the EC50 [12] of the same binder?
A: 1.7 µg/mL

Q: And the “Internalization rate (%) on 786-O” value [13]?
A: 64%

Q: And the “Internalization rate (%) on Caki-1” value [13]?
A: 27%

B2: 2D2, full IgG (antibody, V domains shown)
VH: QVQLQESGPGLVKPSETLSLTCTVSGGSVSSDYYYWSWIRQPPGKGLEWLGYIYYSGSTNYNPSLKSRVTISVDTSKNQFSLKLRSVTTADTAVYYCARGDGDYGGNCFDYWGQGTLVTVSS
VL: EIVLTQSPATLSLSPGERATLSCRASQSVSSYLAWYQQKPGQAPRLLIFDASNRATGIPARFSGSGSGTDFTLTISSLEPEDFAVYYCQQRLKFPLTFGGGTKVEIK
Q: With B2 as the binder, how does the EC50 [1] read?
A: 5.98 nM

Q: What about the EC50 [2] of the same binder?
A: 0.087 µg/mL

Q: What about the EC50 [3] of the same binder?
A: 13.7 nM

Q: What about the EC50 [5] of the same binder?
A: 5.62 nM

Q: What about the EC50 [6] of the same binder?
A: 0.896 µg/mL

Q: And the EC50 [7]?
A: 4.24 ng/mL

Q: And the EC50 [8]?
A: 0.842 µg/mL

Q: And the Kd [9]?
A: 89.6 nM

Q: What about the koff [9] of the same binder?
A: 0.00105 s⁻¹

Q: And the kon [9]?
A: 11700 M⁻¹ s⁻¹

Q: And the EC50 [10]?
A: 7.38 nM

Q: And the EC50 [11]?
A: 1.11 µg/mL

Q: What about the EC50 [12] of the same binder?
A: 2.06 µg/mL

Q: And the “fold improved affinity against parent antibody 69A7” value [14]?
A: 3 to 8 fold

Q: And the “Internalization rate (%) on 786-O” value [13]?
A: 76%

Q: What about the “Internalization rate (%) on Caki-1” value [13] of the same binder?
A: 53%

B3: 1H8, full IgG (antibody, V domains shown)
VH: QVQLQESGPGLVKPSETLSLTCTVSGGSVSSDYYYWSWIRQPPGKGLEWLGYIYYSGSTNYNPSLKSRVTISVDTSKNQFSLKLRSVTTADTAVYYCARGDGDFMGVCFDYWGQGTLVTVSS
VL: EIVLTQSPATLSLSPGERATLSCRASQSVSSYLAWYQQKPGQAPRLLIFDASNRATGIPARFSGSGSGTDFTLTISSLEPEDFAVYYCQQRSNWPLTFGGGTKVEIK
Q: Which results are given for B3?
A: EC50 [1]: 5.65 nM; EC50 [2]: 0.0595 µg/mL; EC50 [3]: 9.6 nM; EC50 [5]: 5.12 nM; EC50 [6]: 0.847 µg/mL; EC50 [7]: 3.26 ng/mL; EC50 [8]: 0.767 µg/mL; Kd [9]: 43.7 nM; koff [9]: 0.00112 s⁻¹; kon [9]: 25600 M⁻¹ s⁻¹; EC50 [10]: 7.99 nM; EC50 [11]: 1.2 µg/mL; EC50 [12]: 1.44 µg/mL; Internalization rate (%) on 786-O [13]: 76%; Internalization rate (%) on Caki-1 [13]: 62%

B4: 2A4, full IgG (antibody, V domains shown)
VH: QVQLQESGPGLVKPSETLSLTCTVSGGSVSSDYYYWSWIRQPPGKGLEWLGYIYYSGSTNYNPSLKSRVTISVDTSKNQFSLKLRSVTTADTAVYYCARGDGDYGGNVFPYWGQGTLVTVSS
VL: EIVLTQSPATLSLSPGERATLSCRASQSVSSYLAWYQQKPGQAPRLLIFDASNRATGIPARFSGSGSGTDFTLTISSLEPEDFAVYYCQQRSNWPLTFGGGTKVEIK
Q: Which results are given for B4?
A: EC50 [1]: 284 nM; EC50 [2]: 9.1 µg/mL; EC50 [3]: 494 nM; EC50 [5]: 142 nM; EC50 [8]: 21.3 µg/mL; Internalization rate (%) on 786-O [13]: 49%; Internalization rate (%) on Caki-1 [13]: 20%

B5: 1F6 (Vorsetuzumab), reference antibody, full IgG (antibody, V domains shown)
VH: QVQLVQSGAEVKKPGASVKVSCKASGYTFTNYGMNWVRQAPGQGLKWMGWINTYTGEPTYADAFKGRVTMTRDTSISTAYMELSRLRSDDTAVYYCARDYGDYGMDYWGQGTTVTVSS
VL: DIVMTQSPDSLAVSLGERATINCRASKSVSTSGYSFMHWYQQKPGQPPKLLIYLASNLESGVPDRFSGSGSGTDFTLTISSLQAEDVAVYYCQHSREVPWTFGQGTKVEIK
notes: also called h1F6; h1 F6
Q: B5 was tested. Which EC50 [7] did it give?
A: 2.84 ng/mL

Q: What about the Kd [9] of the same binder?
A: 52.3 nM

Q: What about the koff [9] of the same binder?
A: 0.00236 s⁻¹

Q: And the kon [9]?
A: 45100 M⁻¹ s⁻¹
